From publication PMC6318280, “A novel m^6A reader Prrc2a controls oligodendroglial specification and myelination” (Cell Research, 2018)

Target: T1, FLAG-Prrc2a-P2 (residue 761-1408) (mouse, UniProt Q7TSC1 761-1408)
T1 construct: Prrc2a p2 fragment, residue 761-1408, amplified from a mouse cDNA library; holds the region rich in glycine, arginine and glutamic acid (GRE domain); the legend of the pull-down names FLAG-Prrc2a-P2 beside P1, P3 and P4, which fits the proteins purified from HEK293T cells; also called P2 fragment; GRE domain; source: HEK293T, transfected, purified (FLAG beads, eluted with 3xFLAG peptide)
T1 sequence (Q7TSC1 761-1408): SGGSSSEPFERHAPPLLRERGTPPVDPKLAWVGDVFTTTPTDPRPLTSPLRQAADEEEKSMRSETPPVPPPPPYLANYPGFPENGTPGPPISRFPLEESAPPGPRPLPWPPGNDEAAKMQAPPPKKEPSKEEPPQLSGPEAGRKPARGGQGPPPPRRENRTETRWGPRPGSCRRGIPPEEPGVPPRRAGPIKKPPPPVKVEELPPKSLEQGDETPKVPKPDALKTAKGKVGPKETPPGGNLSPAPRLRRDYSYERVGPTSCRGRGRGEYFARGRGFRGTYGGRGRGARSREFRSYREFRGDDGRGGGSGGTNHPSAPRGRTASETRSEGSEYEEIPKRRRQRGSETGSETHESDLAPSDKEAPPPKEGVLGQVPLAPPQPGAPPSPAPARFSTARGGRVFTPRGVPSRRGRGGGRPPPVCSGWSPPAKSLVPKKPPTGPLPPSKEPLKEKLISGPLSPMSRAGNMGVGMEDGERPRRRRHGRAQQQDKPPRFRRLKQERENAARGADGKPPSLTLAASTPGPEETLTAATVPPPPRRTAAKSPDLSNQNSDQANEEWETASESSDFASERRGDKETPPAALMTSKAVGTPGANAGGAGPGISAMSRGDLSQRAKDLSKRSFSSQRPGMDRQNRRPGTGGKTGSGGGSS
Assay: pull-down; in vitro GST pull-down with purified GST-YTHDF2 and purified FLAG-Prrc2a fragments
Conditions: both partners purified

binding result: binds
B1: GST-YTHDF2 (natural protein, human, UniProt Q9Y5A9 1-579, looked up)
chain: MSASSLLEQRPKGQGNKVQNGSVHQKDGLNDDDFEPYLSPQARPNNAYTAMSDSYLPSYYSPSIGFSYSLGEAAWSTGGDTAMPYLTSYGQLSNGEPHFLPDAMFGQPGALGSTPFLGQHGFNFFPSGIDFSAWGNNSSQGQSTQSSGYSSNYAYAPSSLGGAMIDGQSAFANETLNKAPGMNTIDQGMAALKLGSTEVASNVPKVVGSAVGSGSITSNIVASNSLPPATIAPPKPASWADIASKPAKQQPKLKTKNGIAGSSLPPPPIKHNMDIGTWDNKGPVAKAPSQALVQNIGQPTQGSPQPVGQQANNSPPVAQASVGQQTQPLPPPPPQPAQLSVQQQAAQPTRWVAPRNRGSGFGHNGVDGNGVGQSQAGSGSTPSEPHPVLEKLRSINNYNPKDFDWNLKHGRVFIIKSYSEDDIHRSIKYNIWCSTEHGNKRLDAAYRSMNGKGPVYLLFSVNGSGHFCGVAEMKSAVDYNTCAGVWSQDKWKGRFDVRWIFVKDVPNSQLRHIRLENNENKPVTNSRDTQEVPLEKAKQVLKIIASYKHTTSIFDDFSHYEKRQEEEESVKKERQGRGK
notes: human YTHDF2 gene subcloned into a pGEX expression vector with GST-tag; also called recombinant GST-YTHDF2; source: E. coli BL21 (DE3), purified (FPLC, Profinity GST cartridge)
